Laboratory results from patent US20100209956.

T1: Lys-plasminogen, P00747
T1 chain: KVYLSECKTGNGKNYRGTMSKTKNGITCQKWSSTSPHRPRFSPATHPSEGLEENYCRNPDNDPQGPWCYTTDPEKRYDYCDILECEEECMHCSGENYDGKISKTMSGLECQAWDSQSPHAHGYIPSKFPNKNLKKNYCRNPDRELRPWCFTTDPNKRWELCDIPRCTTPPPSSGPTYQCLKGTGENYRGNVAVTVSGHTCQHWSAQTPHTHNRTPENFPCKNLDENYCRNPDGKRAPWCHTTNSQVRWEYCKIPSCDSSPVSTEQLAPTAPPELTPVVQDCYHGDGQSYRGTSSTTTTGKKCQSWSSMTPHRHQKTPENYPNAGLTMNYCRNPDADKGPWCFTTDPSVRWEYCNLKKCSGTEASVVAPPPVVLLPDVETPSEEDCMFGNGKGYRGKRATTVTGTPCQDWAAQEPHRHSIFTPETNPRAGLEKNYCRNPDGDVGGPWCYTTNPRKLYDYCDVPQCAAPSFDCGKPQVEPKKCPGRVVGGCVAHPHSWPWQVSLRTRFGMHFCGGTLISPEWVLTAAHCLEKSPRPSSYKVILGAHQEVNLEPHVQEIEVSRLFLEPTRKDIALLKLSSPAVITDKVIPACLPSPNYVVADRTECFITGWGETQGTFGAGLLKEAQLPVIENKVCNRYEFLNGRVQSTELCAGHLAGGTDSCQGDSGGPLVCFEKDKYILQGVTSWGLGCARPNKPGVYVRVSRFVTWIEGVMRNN

B1: soluble form of hepsin encompassing the entire extracellular domain (Arg45-Leu417) and a C-terminal His8 tag (protein)
chain 1: RSDQEPLYPVQVSSADARLMVFDKTEGTWRLLCSSRSNARVAGLSCEEMGFLRALTHSELDVRTAGANGTSGFFCVDEGRLPHTQRLLEVISVCDCPRGRFLAAICQDCGRRKLPVDR
chain 2: not shown
B2: tissue-type plasminogen activator (t-PA) (protein)
chain: SYQVICRDEKTQMIYQQHQSWLRPVLRSNRVEYCWCNSGRAQCHSVPVKSCSEPRCFNGGTCQQALYFSDFVCQCPEGFAGKCCEIDTRATCYEDQGISYRGTWSTAESGAECTNWNSSALAQKPYSGRRPDAIRLGLGNHNYCRNPDRDSKPWCYVFKAGKYSSEFCSTPACSEGNSDCYFGNGSAYRGTHSLTESGASCLPWNSMILIGKVYTAQNPSAQALGLGKHNYCRNPDGDAKPWCHVLKNRRLTWEYCDVPSCSTCGLRQYSQPQFRIKGGLFADIASHPWQAAIFAKHRRSPGERFLCGGILISSCWILSAAHCFQERFPPHHLTVILGRTYRVVPGEEEQKFEVEKYIVHKEFDDDTYDNDIALLQLKSDSSRCAQESSVVRTVCLPPADLQLPDWTECELSGYGKHEALSPFYSERLKEAHVRLYPSSRCTSQHLLNRTVTDNMLCAGDTRSGGPQANLHDACQGDSGGPLVCLNDGRMTLVGIISWGLGCGQKDVPGVYTKVTNYLDWIRDNMRP

What was measured:
[1] = target: pro-HGF (single-chain hepatocyte growth factor), P14210
pro-HGF (single-chain hepatocyte growth factor), P14210, sequence (P14210 32-728): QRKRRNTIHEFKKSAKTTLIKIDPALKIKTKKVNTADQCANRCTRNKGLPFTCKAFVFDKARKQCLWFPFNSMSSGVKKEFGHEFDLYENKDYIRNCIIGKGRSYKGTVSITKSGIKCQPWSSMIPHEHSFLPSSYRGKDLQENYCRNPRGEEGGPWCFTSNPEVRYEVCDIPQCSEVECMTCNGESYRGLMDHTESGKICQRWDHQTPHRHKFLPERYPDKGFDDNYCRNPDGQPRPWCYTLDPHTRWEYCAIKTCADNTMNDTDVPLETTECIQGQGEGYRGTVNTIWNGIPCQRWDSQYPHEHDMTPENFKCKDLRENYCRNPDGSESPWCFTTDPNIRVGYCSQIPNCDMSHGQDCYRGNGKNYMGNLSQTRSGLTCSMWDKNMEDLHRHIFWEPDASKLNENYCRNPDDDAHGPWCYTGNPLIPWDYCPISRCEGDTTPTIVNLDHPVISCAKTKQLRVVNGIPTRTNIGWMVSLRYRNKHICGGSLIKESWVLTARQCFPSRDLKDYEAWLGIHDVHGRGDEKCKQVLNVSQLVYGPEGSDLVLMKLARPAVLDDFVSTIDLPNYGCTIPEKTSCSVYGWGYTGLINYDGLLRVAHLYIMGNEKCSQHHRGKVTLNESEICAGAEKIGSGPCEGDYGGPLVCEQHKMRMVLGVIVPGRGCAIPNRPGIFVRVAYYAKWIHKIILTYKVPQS

[2] = target: T1, Lys-plasminogen, P00747

| Protein | enzyme concentration achieving complete conversion of 125I-labelled pro-HGF into two-chain HGF (4 h, 37° C., SDS-PAGE) [1] | percent of plasminogen zymogen cleaved after 0.5 h (40 nM t-PA, SDS-PAGE) [2] |
| --- | --- | --- |
| B1 | both enzymes achieving complete conversion of pro-HGF at a concentration of 4-13 nM | – |
| VQLSPDLLATLPEPASPGRQACGRRHKKRTFLRPR [HGFA (hepatocyte growth factor activator) comprising residues Val373-Arg407] | both enzymes achieving complete conversion of pro-HGF at a concentration of 4-13 nM | – |
| B2 | – | t-PA efficiently processed plasminogen with about 50% of zymogen already cleaved after 0.5 h |
